Patent publication US20040014191A1, “Nitroreductase enzymes” (priority 1999, published 2004)
Where two headings read alike, the source gives them in different places.

What was measured:
[1] = system: Cc1cc2nc3c(=O)[nH]c(=O)nc-3n(C[C@H](O)[C@H](O)[C@H](O)COP(=O)(O)OP(=O)(O)OC[C@H]3O[C@@H](n4cnc5c(N)ncnc54)[C@H](O)[C@@H]3O)c2cc1C; assay: purified protein, by the assay type
Protocol: Quantitative assays using CB 1954 or SN 23862 as substrate were carried out at 37° C. by HPLC as previously described (2) (3). […] Incubation times varied according to the enzyme activity being studied.

[2] = Nitroreductase enzyme assay with CB 1954 as substrate (HPLC); type: biochemical; conditions: for CB1954 (product formed / activity): Table 2, recombinant B. subtilis enzymes, crude lysates
[3] = Nitroreductase enzyme assay with SN 23862 as substrate (HPLC); type: biochemical; conditions: for SN23862 (activity): Table 2, recombinant B. subtilis enzymes, crude lysates; for SN 23862 acitvity: Table 6
[4] = Quinone reductase assay with menadione, cytochrome c as terminal electron acceptor; type: biochemical
Protocol: (§1) Assays were carried out spectrophotometrically at 37° C. in 10 mM Tris pH 7.5 using cytochrome c as terminal electron acceptor.

[5] = Flavin reductase assay with FMN and FAD; type: biochemical
Protocol: as §1

[6] = system: recombinant enzymes (antigens); assay: Polyclonal antisera titres by ELISA; type: binding; conditions: rabbit antiserum; for Post-boost titre: 10 days after booster; for Pre-boost titre (50%): after 8 weeks
Protocol: Polyclonal antisera were raised against recombinant enzymes by immunising rabbits with […] of protein in 50% PBS:50% Freund's complete adjuvant, total volume 400 μl. Blood was collected by ear bleed after 6-8 weeks and again 10 days after a booster immunisation of protein, and titre assessed by ELISA. 96-well plates were coated with 1 μg ml^−1 of the proteins and blocked with 10% v/v foetal calf serum (FCS), antibodies were diluted in assay buffer (1% FCS) and applied in doubling dilutions across the plate from 1 in 100 to 1 in 51 200 or 1 in 150 to 1 in 76 800. A secondary antibody conjugated with HRP (dilution 1 in 10 000) was used to develop the assay with 3,3′,5,5′-tetramethylbenzidine (TMB) as substrate.
Antisera to E. coli B NfnB and six novel proteins (Haemophilus influenzae and Campylobacter jejuni NfnB homologues, YdgI and YodC of Bacillus subtilis, YwrO of B. amyloliquefaciens and Porphyromonas gingivalis YwrO homologue) have been raised in rabbits by inoculation with 100 μg of protein in PBS+ Freund's complete adjuvant. Titres were assessed by ELISA after 8 weeks, and 10 days after a booster inoculation of a further 100 μg of protein per rabbit. Pre-immune sera were also tested.
96 well plates were coated overnight at 4° C. with the antigens at 1 μg/ml. After washing and blocking antisera were added in doubling dilutions in an appropriate range across the plates. The plates were developed using goat anti-rabbit IgG peroxidase conjugate with TMB as substrate, and read at 450 nm.

[7] = type: biochemical; conditions: Table 6
[8] = type: biochemical; conditions: Table 6; remark: listed apart in the source
[9] = other: cofactor NADH, 37° C., 10 mM Tris pH 7.5, pH 7.5

YodC (Bacillus subtilis subsp. subtilis str. 168)
Km [1, 9]: 0.6 ± 0.1 µM | kcat [1, 9]: 269 ± 4.9 s⁻¹ | kcat/Km [1, 9]: 4.48e+08 M⁻¹ s⁻¹ | Km ([1]; other: cofactor NADPH, 37.0 °C): 2.4 ± 0.3 µM | kcat ([1]; other: cofactor NADPH, 37.0 °C): 283 ± 7.4 s⁻¹ | kcat/Km ([1]; other: cofactor NADPH, 37.0 °C): 1.18e+08 M⁻¹ s⁻¹

B1: YrkL: nitroreductase from B. subtilis, SEQ ID NO: 6 (protein, listed as Bacillus subtilis)
chain: MKTLVIVIHPNLETSVVNKTWMNRLKQEKDITVHDLYGEYPNFIIDVEKEQQLLLDHERIVFQFPMYWYSSPALLKQWEDDVLTHGWAYGTGGTKLHGKELLLAISSGAQESDYQAGGEYNITISELIRPFQVTANYIGMRFLPAFTQYGTLHLSKEDVKNSAERLVDYLKAEH
reduction of CB1954: activity and product formed [2]: no activity | CB1954 (product formed / activity) [2]: inactive | activity with SN23862 [3]: no activity | SN23862 (activity) [3]: inactive

B2: Bs YwrO: nitroreductase from B. subtilis, SEQ ID NO: 4 (protein, listed as Bacillus subtilis)
chain: MKILVLAVHPHMETSVVNKAWAEELSKHDNITVRDLYKEYPDEAIDVAKEQQLCEEYDRIVFQFPLYWYSSPPLLKKWQDLVLTYGWAFGSEGNALHGKELMLAVSTGSEAEKYQAGGANHYSISELLKPFQATSNLIGMKYLPPYVFYGVNYAAAEDISHSAKRLAEYIQQPFV
reduction of CB1954: activity and product formed [2]: inactive with either CB 1954 or SN 23862 | CB1954 (product formed / activity) [2]: 4HX | reduction of CB1954: activity and product formed ([2]; listed as B. subtilis YwrO): converts CB1954 to the 4HX derivative alone | activity with SN23862 [3]: inactive with either CB 1954 or SN 23862 | SN23862 (activity) [3]: inactive | activity with SN23862 ([3]; listed as B. subtilis YwrO): inactive against SN23862

B3: C. jejuni NfnB: nitroreductase from Campylobacter jejuni, SEQ ID NO: 23 (protein, listed as Campylobacter jejuni)
chain: MKKELEIFSTRYSCRNFKNEKLKKEDLNSILEIARLSPSSLGLEPWKFIVVQDEKRKEELSKICNQQKHVKDCAALIIIISRLDFLDYFEEKLRKRDMSETEMQKRLDTYMPFLKSLNQEQKISYAREQAHIALASILYSANALNIASCTIGGFDKEKLDSYLSLDIQKERSSLVVALGYCNDKKNPQKNRFSFDEVVKFI
activity with menadione / quinone reductase [4]: can use the quinone menadione as substrate | Quinone reductase ([4]; Table 6): Yes | Flavin reductase ([5]; Table 6): Yes | flavin reductase activity ([5]; listed as C. jejuni NfnB homologue): can use the quinone menadione as substrate as well as azodyes and the flavins FMN and FAD | flavin reductase activity ([5]; listed as C. jejuni protein): high affinity for both FAD and FMN | Post-boost titre [6]: 2500 | Pre-boost titre (50%) [6]: 1100 | Cofactor [7]: NADPH | kcat (CB 1954) [2]: 6.1 s⁻¹ | kcat for CB1954 (text) [2]: 11.2 s⁻¹ | reduction of CB1954: activity and product formed [2]: only the 4HX reduction product | Km ([2]; Table 6, 37° C., read-out: Km CB 1954): 217 µM | CB 1954 product ([2]; Table 6, recombinant enzymes): 4HX | Km ([2]; read-out: Km for CB1954): 143 µM | activity with SN23862 [3]: active with SN23862 | SN 23862 acitvity, second number of the cell (kcat) ([3]; Table 6, HPLC assay): 6.4 | Km ([3]; Table 6, HPLC assay, read-out: SN 23862 acitvity, first number of the cell (Km)): 224 µM | Azo-Reductase [8]: Yes

B4: E. coli BNfnB (protein)
chain: MDIISVALKRHSTKAFDASKKLTPEQAEQIKTLLQYSPSSTNSQPWHFIVASTEEGKARVAKSAAGNYVFNERKMLDASHVVVFCAKTAMDDVWLKLVVDQEDADGRFATPEAKAANDKGRKFFADMHRKDLHDDAEWMAKQVYLNVGNFLLGVAALGLDAVPIEGFDAAILDAEFGLKEKGYTSLVVVPVGHHSVEDFNATLPKSRLPQNITLTEV
Post-boost titre [6]: 11000 | Pre-boost titre (50%) [6]: 1300

B5: Rat DTD: rat DT-diaphorase enzyme (protein, UniProt P05982 2-274, looked up)
NAD(P)H dehydrogenase …: AVRRALIVLAHAERTSFNYAMKEAAVEALKKKGWEVVESDLYAMNFNPLISRNDITGEPKDSENFQYPVESSLAYKEGRLSPDIVAEQKKLEAADLVIFQFPLYWFGVPAILKGWFERVLVAGFAYTYATMYDKGPFQNKKTLLSITTGGSGSMYSLQGVHGDMNVILWPIQSGILRFCGFQVLEPQLVYSIGHTPPDARVQVLEGWKKRLETVWEESPLYFAPSSLFDLNFQAGFLLKKEVQEEQKKNKFGLSVGHHLGKSIPADNQIKARK
CB1954 kcat ([2]; Table 1): 0.07 s⁻¹ | CB 1954 product ([2]; Table 1, purified enzymes): 4HX | SN23862 Km ([3]; Table 1): inactive | SN23862 kcat ([3]; Table 1): inactive

B6: H. pylori: nitroreductase from Helicobacter pylori, SEQ ID NO: 29 (protein, listed as Helicobacter pylori)
chain: MKFLDQEKRRQLLNERHSCKMFDSHYEFSSEELEEIAEIARLSPSSYNTQPWHFVMVTNKDLKKQIAAHSYFNEEMIKSASALMVVCSLKPSELLPTGHYMQNLYPESYKVRVIPSFAQMLGVRFNHSMQKLESYILEQCYIAVGQICMGVSLMGLDSCIIGGFDPLKVGEVLEERINKPKIACLIALGKRVAEASQKSRKSKVDAITWL
Cofactor [7]: NADPH | CB 1954 product ([2]; Table 6, recombinant enzymes): 4 > 2HX | reduction of CB1954: activity and product formed ([2]; listed as H. pylori NfnB homologue): form the 4HX reduction product of CB1954 | reduction of CB1954: activity and product formed ([2]; listed as Helicobacter pylori enzyme): mixture of the 2 and 4HX | activity with SN23862 [3]: weak activity with SN23862 | SN 23862 acitvity [3]: Weak | Azo-Reductase [8]: No

B7: Synechocystis: nitroreductase from Synechocystis sp PCC 6803, SEQ ID NO: 19 (protein)
chain: MDTFDAIYQRRSVKHFDPDHRLTAEEERKLHEAAIQAPTSFNIQLWRFLIIRDPQLRQTIREKYGNQAQMTDASLLILVAADVNAWDKDPARYWRNAPREVANYLVGAIAFYGGKPQLQRDEAQRSIGMAMQNLMLAAKAMGYDSCPMIGFDLQKVAELVKLPADYAIGPMVAIGKRTEDARAKGGQTPLEELVWENSFA
modifications: Synechocystis PCC6803
Cofactor [7]: NADPH | reduction of CB1954: activity and product formed [2]: only the relatively non-toxic 2HX derivative | CB 1954 product ([2]; Table 6, recombinant enzymes): 2HX | activity with SN23862 [3]: show activity with SN23862 | SN 23862 acitvity [3]: Weak | Azo-Reductase [8]: No

B8: YdeQ: nitroreductase from B. subtilis, SEQ ID NO: 8 (protein, listed as Bacillus subtilis)
chain: MDHMKTLVLVVHPNIESSRINKKWKEAVLSEPDVTVHDLYEKYRDQPIDVEFEQQQLLAHDRIVFQFPLYWYSSPPLLKQWFDEVFTFGWAHGPGGNKLKGKEWVTAMSIGSPEHSYQAGGYNLFSISELTKPFQASAHLVGMTYLPSFAEYRANTISDQEIAESANRYVKHITNIELNPKVRLQRYLKQLESVDLT
reduction of CB1954: activity and product formed [2]: no activity with prodrugs | CB1954 (product formed / activity) [2]: inactive | activity with SN23862 [3]: no activity with prodrugs | SN23862 (activity) [3]: inactive
